Reference: patent US20080044360A1 (COLLAGEN MEDICAL, published 2008)
Bridge positions count the residues as written; N and C are the ends. Square brackets hold non-standard residues; d marks the D form. Primed or numbered codes have the meaning given here. Side chains are listed from the residue outwards. Ends that are not written are not given here. * marks the point of attachment. Tyr(3-Cl) = N[C@@H](Cc1ccc(O)c(Cl)c1)C(=O)O; Bip = N[C@@H](Cc1ccc(-c2ccccc2)cc1)C(=O)O; Tyr(3-I) = N[C@@H](Cc1ccc(O)c(I)c1)C(=O)O; Dip = N[C@H](C(=O)O)C(c1ccccc1)c1ccccc1; Phe(4-NH2) = Nc1ccc(C[C@H](N)C(=O)O)cc1; Gd^T(3) = GdDTPA attached via thiourea; d1Nal = N[C@H](Cc1cccc2ccccc12)C(=O)O; Lys(Gd^T)Gd^T = not defined here; Pen = CC(C)(S)[C@H](N)C(=O)O; Gd^G = not defined here; Gd^T = not defined here; Gd^T″ = GdDTPA-thiourea; Cbz = O=C(OCc1ccccc1)*; Dap = NC[C@H](N)C(=O)O

Experiments:
[1] = target: T1, rat collagen, acid soluble, type I, rat tail (Upstate 08-115) (rat, UniProt P02454 152-1207; P02466 86-1125); assay: dried collagen assay
T1 construct: tissue extract, gelled and dried in wells; also called dried rat collagen
T1 sequence (P02454 152-1207, chain 1 of 2): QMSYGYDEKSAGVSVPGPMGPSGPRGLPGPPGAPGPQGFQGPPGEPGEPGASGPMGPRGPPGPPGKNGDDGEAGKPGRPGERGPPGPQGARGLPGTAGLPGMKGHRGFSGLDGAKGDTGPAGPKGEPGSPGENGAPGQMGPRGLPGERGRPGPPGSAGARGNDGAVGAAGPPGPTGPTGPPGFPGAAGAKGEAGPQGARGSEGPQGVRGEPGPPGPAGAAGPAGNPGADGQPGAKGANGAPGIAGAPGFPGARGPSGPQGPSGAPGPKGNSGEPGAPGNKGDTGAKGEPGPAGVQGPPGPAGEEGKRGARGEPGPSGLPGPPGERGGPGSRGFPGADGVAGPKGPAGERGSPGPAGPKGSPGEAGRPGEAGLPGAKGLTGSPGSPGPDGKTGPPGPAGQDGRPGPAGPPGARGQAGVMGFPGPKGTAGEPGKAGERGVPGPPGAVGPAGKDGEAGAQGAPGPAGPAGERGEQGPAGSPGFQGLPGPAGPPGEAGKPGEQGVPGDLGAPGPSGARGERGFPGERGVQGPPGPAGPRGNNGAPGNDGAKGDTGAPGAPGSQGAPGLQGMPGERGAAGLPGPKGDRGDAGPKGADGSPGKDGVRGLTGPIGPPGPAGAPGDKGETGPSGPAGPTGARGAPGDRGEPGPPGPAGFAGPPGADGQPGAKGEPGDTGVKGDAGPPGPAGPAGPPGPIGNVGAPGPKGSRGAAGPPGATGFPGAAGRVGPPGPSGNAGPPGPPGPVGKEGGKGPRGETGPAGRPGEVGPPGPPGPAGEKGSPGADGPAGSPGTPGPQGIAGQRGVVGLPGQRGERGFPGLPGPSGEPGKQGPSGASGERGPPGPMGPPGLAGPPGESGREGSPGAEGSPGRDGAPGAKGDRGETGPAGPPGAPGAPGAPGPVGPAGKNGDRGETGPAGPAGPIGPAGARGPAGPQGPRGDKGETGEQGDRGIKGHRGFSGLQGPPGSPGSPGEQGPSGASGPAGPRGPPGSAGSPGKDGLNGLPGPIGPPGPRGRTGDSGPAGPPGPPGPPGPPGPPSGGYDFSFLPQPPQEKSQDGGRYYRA
T1 sequence (P02466 86-1125, chain 2 of 2): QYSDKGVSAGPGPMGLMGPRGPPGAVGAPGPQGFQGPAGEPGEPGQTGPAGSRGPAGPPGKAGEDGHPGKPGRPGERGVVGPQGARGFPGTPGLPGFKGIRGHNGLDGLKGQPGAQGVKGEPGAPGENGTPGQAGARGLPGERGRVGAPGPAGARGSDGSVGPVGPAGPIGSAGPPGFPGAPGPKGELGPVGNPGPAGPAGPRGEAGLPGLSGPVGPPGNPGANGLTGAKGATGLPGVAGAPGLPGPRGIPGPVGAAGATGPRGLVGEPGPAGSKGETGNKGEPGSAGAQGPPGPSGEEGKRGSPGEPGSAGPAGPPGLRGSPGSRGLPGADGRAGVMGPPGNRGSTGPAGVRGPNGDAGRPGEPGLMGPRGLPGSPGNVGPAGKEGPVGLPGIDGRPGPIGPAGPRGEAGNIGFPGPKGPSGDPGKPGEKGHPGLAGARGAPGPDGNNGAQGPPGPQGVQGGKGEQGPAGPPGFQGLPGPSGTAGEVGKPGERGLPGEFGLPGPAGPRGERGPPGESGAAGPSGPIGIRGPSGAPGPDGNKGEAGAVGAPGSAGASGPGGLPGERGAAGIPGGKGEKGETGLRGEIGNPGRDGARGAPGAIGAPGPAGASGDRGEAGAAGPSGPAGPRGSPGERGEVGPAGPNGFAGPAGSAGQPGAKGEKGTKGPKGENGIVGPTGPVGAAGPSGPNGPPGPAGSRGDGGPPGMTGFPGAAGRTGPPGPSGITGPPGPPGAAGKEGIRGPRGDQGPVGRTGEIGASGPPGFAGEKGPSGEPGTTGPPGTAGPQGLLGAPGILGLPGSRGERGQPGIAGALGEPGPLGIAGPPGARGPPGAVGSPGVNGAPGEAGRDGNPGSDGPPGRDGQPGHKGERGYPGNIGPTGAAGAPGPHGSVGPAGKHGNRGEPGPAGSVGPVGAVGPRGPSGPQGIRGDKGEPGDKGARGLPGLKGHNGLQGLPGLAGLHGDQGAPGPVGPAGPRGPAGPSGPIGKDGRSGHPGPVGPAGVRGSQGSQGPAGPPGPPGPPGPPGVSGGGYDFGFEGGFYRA

[2] = target: T2, human collagen type I, acid soluble, extracted from placenta (Sigma C7774) (human, UniProt P02452 162-1218; P08123 80-1119); assay: dried collagen assay
T2 construct: tissue extract, gelled and dried in wells; also called dried human collagen; h-Collagen
T2 sequence (P02452 162-1218 limits assumed, chain 1 of 2): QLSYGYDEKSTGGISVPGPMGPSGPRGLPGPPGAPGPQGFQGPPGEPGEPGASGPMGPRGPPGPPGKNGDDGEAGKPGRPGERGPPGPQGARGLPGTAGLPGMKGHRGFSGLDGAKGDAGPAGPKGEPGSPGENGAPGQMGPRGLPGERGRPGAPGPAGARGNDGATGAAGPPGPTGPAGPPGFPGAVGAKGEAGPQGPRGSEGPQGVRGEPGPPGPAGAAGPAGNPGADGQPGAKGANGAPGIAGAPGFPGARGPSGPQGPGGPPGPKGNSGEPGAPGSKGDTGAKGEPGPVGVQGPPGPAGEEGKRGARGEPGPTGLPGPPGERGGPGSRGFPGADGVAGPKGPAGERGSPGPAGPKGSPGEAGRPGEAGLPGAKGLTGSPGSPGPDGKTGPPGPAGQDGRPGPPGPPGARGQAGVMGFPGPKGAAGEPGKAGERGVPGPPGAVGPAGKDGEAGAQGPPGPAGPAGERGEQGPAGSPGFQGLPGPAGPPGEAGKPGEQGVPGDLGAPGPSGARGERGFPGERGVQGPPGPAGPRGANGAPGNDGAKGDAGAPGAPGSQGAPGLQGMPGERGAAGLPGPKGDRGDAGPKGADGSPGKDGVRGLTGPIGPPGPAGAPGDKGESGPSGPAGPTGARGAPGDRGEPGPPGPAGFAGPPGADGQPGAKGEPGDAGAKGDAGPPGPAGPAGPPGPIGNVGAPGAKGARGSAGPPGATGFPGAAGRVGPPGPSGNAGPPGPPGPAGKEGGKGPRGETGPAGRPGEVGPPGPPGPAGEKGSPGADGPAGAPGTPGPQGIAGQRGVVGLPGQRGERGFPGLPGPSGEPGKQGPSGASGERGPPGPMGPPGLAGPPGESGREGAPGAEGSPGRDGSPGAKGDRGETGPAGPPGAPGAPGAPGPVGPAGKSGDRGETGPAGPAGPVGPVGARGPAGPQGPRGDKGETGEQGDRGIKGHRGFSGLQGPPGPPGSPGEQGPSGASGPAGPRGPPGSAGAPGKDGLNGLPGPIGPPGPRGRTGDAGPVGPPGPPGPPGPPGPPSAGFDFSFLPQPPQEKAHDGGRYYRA
T2 sequence (P08123 80-1119 limits assumed, chain 2 of 2): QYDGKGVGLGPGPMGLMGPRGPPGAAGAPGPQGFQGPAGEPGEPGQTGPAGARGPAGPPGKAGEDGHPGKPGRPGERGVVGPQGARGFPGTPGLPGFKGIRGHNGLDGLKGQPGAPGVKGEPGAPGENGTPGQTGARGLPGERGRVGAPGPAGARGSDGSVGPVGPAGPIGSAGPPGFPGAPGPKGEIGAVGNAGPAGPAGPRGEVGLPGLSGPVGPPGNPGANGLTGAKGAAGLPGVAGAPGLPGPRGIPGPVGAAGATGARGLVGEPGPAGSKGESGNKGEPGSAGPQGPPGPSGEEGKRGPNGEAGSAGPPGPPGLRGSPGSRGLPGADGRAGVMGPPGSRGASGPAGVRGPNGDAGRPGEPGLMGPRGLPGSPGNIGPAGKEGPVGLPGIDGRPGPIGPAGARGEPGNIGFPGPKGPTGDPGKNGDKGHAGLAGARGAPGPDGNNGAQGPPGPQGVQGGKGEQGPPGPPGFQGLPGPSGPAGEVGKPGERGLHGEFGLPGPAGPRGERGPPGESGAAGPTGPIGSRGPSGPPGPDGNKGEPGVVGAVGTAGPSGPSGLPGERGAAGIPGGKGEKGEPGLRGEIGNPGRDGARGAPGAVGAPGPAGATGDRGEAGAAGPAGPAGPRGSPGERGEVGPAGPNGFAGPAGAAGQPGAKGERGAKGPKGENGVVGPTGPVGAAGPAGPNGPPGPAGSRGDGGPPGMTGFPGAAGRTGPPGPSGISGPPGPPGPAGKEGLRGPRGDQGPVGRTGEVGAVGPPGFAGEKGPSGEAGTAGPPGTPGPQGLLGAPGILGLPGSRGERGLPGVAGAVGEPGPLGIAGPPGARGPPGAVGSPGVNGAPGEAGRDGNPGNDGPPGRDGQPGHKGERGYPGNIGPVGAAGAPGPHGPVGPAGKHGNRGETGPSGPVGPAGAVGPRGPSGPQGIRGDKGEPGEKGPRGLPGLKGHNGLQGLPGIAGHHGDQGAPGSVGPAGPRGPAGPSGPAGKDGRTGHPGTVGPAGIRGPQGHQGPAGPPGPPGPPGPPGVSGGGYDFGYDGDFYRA

Binder | % bound [1] | % bound [2]
{Gd^G}-PWTCSGDEYAWHCNY[dE] (disulfide 4-13 (inferred); not fully specified (C-terminus); reading uncertain) [Compound ID 824] | 0% | 12%
{Gd^T″}-DWTC[Phe(4-CO2H)]GDEYTWHCNYE (disulfide 4-13 (inferred); not fully specified (C-terminus)) [Compound ID 828] | 20% | 52%
{Gd^T″}-DWTCSGDEYTWHCN[Tyr(3-I)]E (disulfide 4-13 (inferred); not fully specified (C-terminus)) [Compound ID 831] | 21% | 50%
{Gd^T″}-DWTCSGDEYYWHCNYE (disulfide 4-13 (inferred); not fully specified (C-terminus)) [Compound ID 834] | 9% | 22%
{Gd^T″}-DWTCS[dA]DEYTWHCNYE (disulfide 4-13 (inferred); not fully specified (C-terminus)) [Compound ID 835] | 9% | 17%
{Gd^T}-DWTCSGDE[Tyr(3-I)]TWHCNYE (disulfide 4-13 (inferred); not fully specified (C-terminus); reading uncertain) [Compound ID 846] | 9% | 31%
{Gd^T}-DWTCSGDEYTWHCNYE (disulfide 4-13 (inferred); not fully specified (C-terminus); reading uncertain) [Compound ID 848] | 9% | 35%
{Gd^T″}-DWTCS[dS]DEYTWHCNYE (disulfide 4-13 (inferred); not fully specified (C-terminus)) [Compound ID 836] |  | 13%
{Gd^T}-DWTCS[dL]DEYTWHCNYE (disulfide 4-13 (inferred); not fully specified (C-terminus); reading uncertain) [Compound ID 847] |  | 16%
{Gd^T″}-GQWHCTTD[Phe(4-NH2)](Gd^T″)PHHYCLYG (disulfide 5-14 (inferred)) [Compound ID 885] |  | 16%
{Gd^T″}-GQWHCTTD[Tyr(3-Cl)]PHHYCLYG (disulfide 5-14 (inferred); not fully specified (C-terminus)) [Compound ID 895] | 0% | 
{Gd^T″}-GQWHCT[dN]RFPHHYCLYG (disulfide 5-14 (inferred); not fully specified (C-terminus)) [Compound ID 897] | 1% | 
{Gd^T″}-GQWHCT[dS]RFPHHYCLYG (disulfide 5-14 (inferred); not fully specified (C-terminus)) [Compound ID 898] | 3% | 
{Gd^T″}-GQWHCT[dR]RFPHHYCLYG (disulfide 5-14 (inferred); not fully specified (C-terminus)) [Compound ID 900] | 1% | 
{Gd^T″}-GQWHCTTRFPHH[dR]CLYG (disulfide 5-14 (inferred); not fully specified (C-terminus)) [Compound ID 902] | 2% | 
{Gd^T″}-GQWHCTTRFPHH[dT]CLYG (disulfide 5-14 (inferred); not fully specified (C-terminus)) [Compound ID 905] | 2% | 
{Gd^T″}-GQWHCTDRFPHHYCLYG (disulfide 5-14 (inferred)) [Compound ID 936] |  | 9%
Cbz-GQWHCTK(Gd^T″)RFPHHYCLYG (disulfide 5-14 (inferred)) [Compound ID 940] |  | 9%
{Gd^T″}-GK([Gly-Gd^T″])WHCTTLFPHHVCLYG (disulfide 5-14 (inferred)) [Compound ID 966] |  | 14%
{Gd^T″}-K(Gd^T″)K(Lys(Gd^T)Gd^T)WHCYTYFPHHYCVYG (disulfide 5-14 (inferred); reading uncertain) [Compound ID 1003] | 47% | 
{Gd^T″}-GQWTCSGDEYAWHCNY[dE] (disulfide 5-14 (inferred); not fully specified (C-terminus)) [Compound ID 832] |  | 12%
{Gd^T″}-GQWTCSGDEYTWACNYE (disulfide 5-14 (inferred); not fully specified (C-terminus)) [Compound ID 833] |  | 13%
{Gd^T}-GQWACSGDEYTWHCNYE (disulfide 5-14 (inferred); not fully specified (C-terminus); reading uncertain) [Compound ID 840] |  | 15%
{Gd^T″}-GQWHCTTDFPH[Dap]YCLYG (disulfide 5-14) [Compound ID 886] | 13% | 
{Gd^T(3)}-GQWHCTTRFPHH[d1Nal]CLYG (disulfide 5-14; not fully specified (C-terminus)) [Compound ID 904] |  | 0%
{Gd^T(3)}-GQWHCTTRFPHHY[Pen]LYG (disulfide 5-14; not fully specified (C-terminus)) [Compound ID 906] |  | 13%
{Gd^T(3)}-GK([Gly-Gd^T(3)])WHCTTYFPHH[Bip]CLYG (disulfide 5-14) [Compound ID 951] | 32% | 
{Gd^T″}-GK([Gly-Gd^T″])WHCTTYFPHHYCL[Dip]G (disulfide 5-14 (inferred); not fully specified) [Compound ID 967] |  | 11%
{Gd^T″}-GK([Gly-Gd^T″])WHCTTYFPHH[Dip]CLYG (disulfide 5-14 (inferred); not fully specified) [Compound ID 968] |  | 77%
{Gd^T″}-GK([Gly-Gd^T″])WH[dC]TTK(Gd^T″)FPHHYCLY[Bip] (disulfide 5-14) [Compound ID 1019] |  | 14%
